Data as given in US12365710B2, “HMGB1 protein derivatives for the removal of biofilms” (RESEARCH INSTITUTE AT NATIONWIDE CHILDREN'S HOSPITAL, priority 2018, dated 2025).
Where two headings read alike, the source gives them in different places.

B1: B-linker Box: HMGB1 B Box with N- and C-terminal linker (80-179; 80 to 176 in b258), 97 amino acid (protein, UniProt P09429 80-179, looked up, fragment)
chain: PPKGETKKKFKDPNAPKRPPSAFFLFCSEYRPKIKGEHPGLSIGDVAKKLGEMWNNTAADDKQPYEKKAAKLKEKYEKDIAAYRAKGKPDAAKKGVVKAE
B2: mHMGB1: engineered C45S variant of full length rHMGB1 that mimics the reduced form of HMGB1 (protein, UniProt P09429 1-215, looked up, variant C45S)
chain: MGKGDPKKPRGKMSSYAFFVQTCREEHKKKHPDASVNFSEFSKKSSERWKTMSAKEKGKFEDMAKADKARYEREMKTYIPPKGETKKKFKDPNAPKRPPSAFFLFCSEYRPKIKGEHPGLSIGDVAKKLGEMWNNTAADDKQPYEKKAAKLKEKYEKDIAAYRAKGKPDAAKKGVVKAEKSKKKKEEEEDEEDEEDEEEEEDEEDEDEEEDDDDE
modifications: full-length
notes: engineered C45S variant of full length rHMGB1 that mimics the reduced form of HMGB1

System: B. cenocepacia
Type: in vivo, C57BL/6 mice
Details: for Bc CFU in lung tissue / Bc CFU in BAL: 10^7 CFU Bc i.t. with 0.2 nmol protein simultaneously, 18 h; for Bc CFU in lung tissue: data not shown, P<0.05; for Bc CFU in BAL: vs control mice; for aggregate biofilm formation / development in vivo: lung model, 0.2 nmol given simultaneously with Bc; for lung damage, H&E histology: mouse, in vivo
Experimental: FIGS. 7A-7G: HMGB1 promotes clearance of S. cenocepaca from mice without inducing sepsis. C57BL/6 mice were challenged with 10^7 CFU intratracheally, and either simultaneously (prevention) or 24 h later (treatment) received 0.2 nmol of HMGB1 valiant. (FIG. 7A) Aggregates of B. cenocepacia were visible by fluorescence microscopy in lung sections probed with an α-B. cenocepacia antibody. For prevention, (FIG. 7B) bronchoalveolar lavage (BAL) collected 18 h post-inoculation (hpi) was analyzed for CFU. (FIG. 7C) Neutrophils in BAL were quantified by differential cell counting. (FIG. 7D) Lung tissue collected 72hpi was fixed, embedded, sectioned, and stained with hematoxylin & eosin (10× magnification). For treatment, 72hpi (FIG. 7E) CFUs were quantified in BAL. (FIG. 7F) Neutrophil recruitment was analyzed 24 h after intraperitoneal (i.p.) administration of HMGB1 valiants by fluorescence-activated cell sorting of peritoneal lavage stained with α-CD45, α-CD11b, and αLy-6G. (FIG. 7G) Serum TNF-α. was measured by ELISA in mice injected i.p. with 0.2 nmol HMGB1 valiants, 5 mg/kg LPS, or both. LoD: limit of detection. Bars represent SD. *P<0.05.
Applicant's novel approach of using a non-antimicrobial agent like HMGB1 protein and its variants for the treatment of biofilm related infections epitomizes a radical departure from classic therapeutic concepts. Full length HMGB1 and the smallest variant tested to date with the greatest disruption activity found in vitro, B Box and the modified B Box (mB Box) where the cysteine at position 106 was mutated to a serine to abrogate its inflammatory inducing ability, were tested in vivo for biofilm disruption and inflammatory activity (FIG. 7).
rHMGB1 and mHMGB1 disrupt biofilms in two distinct animal models but the inflammatory response is strongly attenuated with Cys to Ser mutations: Applicant tested both rHMGB1 and mHMGB1 for their ability to treat middle ear infection and the corresponding inflammatory response using a well-established chinchilla model of experimental OM due to NTHI49,67,68 wherein adhered mucosal biofilm formation plays a key role in pathogenesis (FIG. 8A). The middle ear of mixed sex, outbred adult chinchillas were inoculated with 1000 CFU NTHI by transbullar injection. At days 4 and 5 post-challenge, at which time there is abundant biofilm present in the middle ear space, […] of rHMGB1, mHMGB1, or diluent was delivered directly to the middle ear (2 total treatments). On day 6, animals were sacrificed and middle ears were imaged and blindly scored for biofilm that remained (FIG. 8A) and mucosal inflammation (FIG. 8B). […] In contrast, MEFs from mHMGB1-treated animals had increased anti-inflammatory cytokines [IL-4 (2-fold), IL-10 (5-fold)] […] Next, Applicant determined whether rHMGB1 or mHMGB1 could prevent or […] biofilm development. For prevention, adult C57BL/6 mice were challenged with 10^7 CFU of Bc intratracheally (i.t.), and 0.2 nmol of rHMGB1 or mHMGB1 was added simultaneously. After 18 h, mice were euthanized, and bronchoalveolar lavage (BAL) and lungs were collected. Bc formed aggregates that were readily visible in lung sections probed with Bc antibody (FIG. 7A). Tissue was homogenized and CFUs were enumerated. […] This same animal model was then used to investigate lung damage 72 h post-challenge with Bc and administration of rHMGB1 or mHMGB1. Lungs were collected and tissue was fixed, embedded in paraffin, sectioned, and stained with Haematoxylin and Eosin (H&E). […] Next, Applicant assessed the ability of rHMGB1 and mHMGB1 to treat established Bc infection. Mice were challenged as above and 0.2 nmol rHMGB1 or mHMGB1 was administered 24 h later. 48 h after treatment, mice were euthanized and BAL and lungs were collected and processed as above. […] To further validate the reduced pro-inflammatory activity of mHMGB1, Applicant used an in vivo model of chemotaxis to determine relative ability to recruit neutrophils70,71. […]

Row | Molecule | Bc CFU in lung tissue | Bc CFU in BAL | aggregate biofilm formation / development in vivo | lung damage, H&E histology | aggregate biofilm formation / development in vivo (listed as B Box) | aggregate biofilm formation / development in vivo (listed as B box) | inflammatory response in the lung model (0.2 nmol)
1 | rHMGB1: tagless human recombinant full length HMGB1 (1-215) expressed in E. coli | significantly fewer | significantly fewer Bc in BAL | prevent biofilm formation in vivo | severe inflammation and an increased neutrophil response | – | – | –
2 | B1 | – | decreased CFU in BAL | – | – | inhibit biofilm development in vivo | prevent biofilm formation in vivo | –
3 | B2 | significantly fewer | significantly fewer Bc in BAL | inhibited aggregate biofilm formation | more closely resembled uninfected mouse lungs | – | – | did not enhance the inflammatory response
